{"source": "patent US20260275311", "about": "“CRISPR NUCLEASE POLYPEPTIDES AND GENE EDITING SYSTEMS COMPRISING SUCH” (ARBOR BIOTECHNOLOGIES, INC., published 2026)", "assay_in_all_cases": "cell_activity", "settings_in_all_cases": "PAM TTAAA; HEK293T", "key": {"Nuclease M E401R E401R": {"test_system": "T1, Nuclease M E401R E401R", "T1 sequence": "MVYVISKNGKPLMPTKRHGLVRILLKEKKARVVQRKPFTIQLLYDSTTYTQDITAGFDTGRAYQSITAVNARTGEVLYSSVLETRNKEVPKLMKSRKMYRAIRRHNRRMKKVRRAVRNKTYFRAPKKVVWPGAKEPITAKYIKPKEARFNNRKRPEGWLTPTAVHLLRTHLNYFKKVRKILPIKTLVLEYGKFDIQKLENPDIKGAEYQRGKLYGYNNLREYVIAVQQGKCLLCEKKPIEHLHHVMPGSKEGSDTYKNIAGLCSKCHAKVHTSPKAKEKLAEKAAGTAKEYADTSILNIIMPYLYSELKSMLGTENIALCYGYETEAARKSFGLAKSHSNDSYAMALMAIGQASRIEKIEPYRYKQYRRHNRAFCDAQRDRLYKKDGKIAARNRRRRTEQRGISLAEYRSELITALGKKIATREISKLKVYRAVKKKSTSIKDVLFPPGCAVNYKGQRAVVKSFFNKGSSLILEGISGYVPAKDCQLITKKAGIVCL"}, "Nuclease M E88R E88R": {"test_system": "T2, Nuclease M E88R E88R", "T2 sequence": "T1 sequence with E88R, R401E"}, "Nuclease M L92R L92R": {"test_system": "T3, Nuclease M L92R L92R", "T3 sequence": "T1 sequence with L92R, R401E"}, "Nuclease M N371R N371R": {"test_system": "T4, Nuclease M N371R N371R", "T4 sequence": "T1 sequence with N371R, R401E"}, "Nuclease M P481R P481R": {"test_system": "T5, Nuclease M P481R P481R", "T5 sequence": "T1 sequence with R401E, P481R"}, "Nuclease M S95R S95R": {"test_system": "T6, Nuclease M S95R S95R", "T6 sequence": "T1 sequence with S95R, R401E"}}, "note": "Changes are numbered by the printed parent chain.", "data": [{"sequence": "GAGCCUGGUCCAUGGAGAGUGUCAACUACCCCCGUCUAAAGACGGAGGCAUGAGGUUUCGUAACCAAGUGUUGUACCUGCGGGUACAGUAGUUGAACAGGCGGCGAUGCGGCUGGGCACUCCAGGAUGCCACUCCCAGUCCCGGACACUGCCGACGAGCCGCAUCAAGCCGGGGGAGACCAACCGGCUAACGAUAGCCGAGCAAUUACCUAAAAAGAGGUGCAAAGGAAAUGGUAU / GAGCCTGGTCCATGGAGAGT / ACTCTCCATGGACCAGGCTC [Nuclease M VEGFA-T5 guide ; Nuclease M VEGFA-T5 target]", "values": [{"measurement": "binding signal (fold vs Nuclease M)", "setting": "Nuclease M E401R E401R", "result": 1.77}, {"measurement": "binding signal (fold vs Nuclease M)", "setting": "Nuclease M E88R E88R", "result": 2.09}, {"measurement": "binding signal (fold vs Nuclease M)", "setting": "Nuclease M L92R L92R", "result": 1.81}, {"measurement": "binding signal (fold vs Nuclease M)", "setting": "Nuclease M N371R N371R", "result": 1.65}, {"measurement": "binding signal (fold vs Nuclease M)", "setting": "Nuclease M P481R P481R", "result": 1.6}, {"measurement": "binding signal (fold vs Nuclease M)", "setting": "Nuclease M S95R S95R", "result": 2.05}]}]}
